Laboratory results from US7160981B2, “Peptide antagonists of DP transcription factors” (Prolifix Limited, priority 1996, dated 2007).
“Also recorded” adds a separate entry of the source.

Experiments:
[1] = molecular target: T1, DP-1/E2F-1 heterodimer (Homo sapiens, UniProt Q01094); experiment: binding assay: GST-E2F-1 fusion protein bound to in vitro translated DP-1, peptide competition; conditions: peptide included in binding reaction
T1 construct: GST (N); made in house; DP-1 made by in vitro translation
T1 sequence (Q01094 whole entry, the tested form may be a part, one chain of several): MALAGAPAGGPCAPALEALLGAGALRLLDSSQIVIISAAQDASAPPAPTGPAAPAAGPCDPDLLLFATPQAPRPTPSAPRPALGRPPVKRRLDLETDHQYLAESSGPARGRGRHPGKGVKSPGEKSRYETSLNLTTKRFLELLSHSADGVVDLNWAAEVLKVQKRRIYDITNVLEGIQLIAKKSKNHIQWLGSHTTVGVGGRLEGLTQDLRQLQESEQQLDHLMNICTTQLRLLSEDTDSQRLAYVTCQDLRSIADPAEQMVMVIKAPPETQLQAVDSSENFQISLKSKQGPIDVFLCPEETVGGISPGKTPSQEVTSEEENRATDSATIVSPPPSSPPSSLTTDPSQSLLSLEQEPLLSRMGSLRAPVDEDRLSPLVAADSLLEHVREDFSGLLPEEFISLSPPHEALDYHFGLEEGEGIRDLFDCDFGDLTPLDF
Text: To determine the influence of the DEF box region upon the formation of the DP-1/E2F heterodimer, we used a binding assay in which E2F-1, expressed as a GST-E2F-1 fusion protein, bound to in vitro translated DP-1, an assay used previously to measure dimerization between DP and E2F proteins (31,32). Peptides were included in the binding reaction and their ability to compete with wild-type DP-1 for E2F-1 assessed by the amount of DP-1 which remained bound to the E2F-1 fusion protein.
(§1) GST-E2F-1, E2F-2, E2F-3 and pRb have been described previously (27,31,32) and were purified to homogeneity using glutathione Sepharose. In vitro translated DP-1, DP-1^172/173, E2F-1 and E1a were translated as described previously (27,31,32).
(§2) Gel retardation was performed using 5 to 10 μg of either F9 EC or JM cell extract with either an E2F or ATF site as previously described (15). Where fusion proteins were used, about 25 ng of either DP-1 or E2F-1 were used in each binding assay. For in vitro translates, about 6 μl of the translation mix was used in each binding assay. Gel retardation with an E2F binding site taken from the adenovirus E2a promoter was as previously described (15).

[2] = molecular target: T2, E2F DNA binding activity of DP-1/E2F-1 heterodimer (Homo sapiens, UniProt Q01094); experiment: DP-1/E2F-1 DNA binding assay (gel retardation, bacterial fusion proteins); format: biochemical; conditions: peptide titrated 1, 0.5, 0.1, 0.01 nmol
T2 construct: GST (N); made in house; host or cells: bacterial
T2 sequence (Q01094 whole entry, the tested form may be a part, one chain of several): as above
Text: Since the peptides function as antagonists of the formation of the DP/E2F heterodimer, we reasoned that they may also interfere with E2F DNA binding activity. To address this question, we determined whether the E2F DNA binding activity created in vitro from combining bacterial DP and E2F fusion proteins was affected by the peptides.
As previously shown, the interaction between DP-1 and E2F-1 leads to co-operative DNA binding activity. Peptide H (SEQ ID NO:1) was titrated into the DP-1/E2F-1 DNA binding assay, using 1 nmol, 0.5 nmol, 0.1 nmol and 0.01 nmol of peptide.
as §2

[3] = test system: physiological E2F DNA binding activity (DP-1/E2F heterodimer) in F9 embryonal carcinoma cell extracts; experiment: gel retardation, E2F site, F9 EC cell extracts; format: biochemical; conditions: for inactivation of E2F DNA binding activity in F9 EC cell extracts: F9 EC cell extract, peptide up to 1 nmol
Text: Because the DEF box peptides can antagonise DNA binding activity of the DP-1/E2F heterodimer formed in vitro, we went on to establish their effects on physiological E2F. For this experiment, we used extracts prepared from F9 embryonal carcinoma (EC) cells, since these cells contain high levels of endogenous E2F DNA binding activity as a DP-1/E2F-heterodimer (26).
(§3) In a similar fashion to its effect upon the in vitro formed activity, the physiological DNA binding activity in F9 EC cell extracts was inactivated upon titration of peptide H (using the same concentrations mentioned above), but not by H1. This effect was specific for E2F since no effect on the unrelated DNA binding activity ATF was observed under similar conditions.
as §2

[4] = molecular target: T3, DP-1/E2F-2 heterodimer (Homo sapiens, UniProt Q14209); experiment: binding assay: GST-E2F-2 bound to in vitro translated DP-1; conditions: peptide 5 nmol, 1 nmol, 100 pmol
T3 construct: GST (N); made in house; host or cells: GST fusion purified on glutathione Sepharose; DP-1 made by in vitro translation
T3 sequence (Q14209 whole entry, the tested form may be a part, one chain of several): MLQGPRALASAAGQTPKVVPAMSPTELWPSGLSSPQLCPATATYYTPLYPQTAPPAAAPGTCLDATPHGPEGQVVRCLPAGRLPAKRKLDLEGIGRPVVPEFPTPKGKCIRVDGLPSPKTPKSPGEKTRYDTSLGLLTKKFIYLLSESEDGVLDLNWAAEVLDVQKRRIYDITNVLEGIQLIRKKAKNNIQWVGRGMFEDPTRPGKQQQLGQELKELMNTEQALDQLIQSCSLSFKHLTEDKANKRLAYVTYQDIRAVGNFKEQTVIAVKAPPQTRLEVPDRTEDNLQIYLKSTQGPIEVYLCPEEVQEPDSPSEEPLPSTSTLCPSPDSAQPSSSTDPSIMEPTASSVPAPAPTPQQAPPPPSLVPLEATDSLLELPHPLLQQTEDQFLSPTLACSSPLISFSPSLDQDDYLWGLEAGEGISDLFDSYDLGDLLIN
Text: (§4) FIG. 2 illustrates that peptides containing DEF box sequence prevent DP-1 forming a heterodimer with E2F family members. The ability of in vitro translated DP-1 (indicated by bracket) to bind to GST-E2F-1 (tracks 1,2,3 and 4), GST-E2F-2 (5,6,7 and 8) or GST-E2F-3 (9,10,11 and 12) in the absence (tracks 1,5 and 9) or presence of decreasing levels of peptide H (5 nmol; tracks 2,6 and 10; 1 nmol tracks 3,7 and 11 or 100 pmol tracks 4,8 and 12).
(§5) In the second, the activity of the DEF box antagonist peptide H was assessed on heterodimers formed between DP-1 and the other E2F family members, E2F-2 and E2F-3, which show high conservation with E2F-1 across the DEF box. […] We conclude therefore that peptides representing sequence derived from the DEF box function as specific antagonists of the DP-1/E2F heterodimer.
as §1

[5] = molecular target: T4, DP-1/E2F-3 heterodimer (Homo sapiens, UniProt O00716); experiment: binding assay: GST-E2F-3 bound to in vitro translated DP-1; conditions: peptide 5 nmol, 1 nmol, 100 pmol
T4 construct: GST (N); made in house; host or cells: GST fusion purified on glutathione Sepharose; DP-1 made by in vitro translation
T4 sequence (O00716 whole entry, the tested form may be a part, one chain of several): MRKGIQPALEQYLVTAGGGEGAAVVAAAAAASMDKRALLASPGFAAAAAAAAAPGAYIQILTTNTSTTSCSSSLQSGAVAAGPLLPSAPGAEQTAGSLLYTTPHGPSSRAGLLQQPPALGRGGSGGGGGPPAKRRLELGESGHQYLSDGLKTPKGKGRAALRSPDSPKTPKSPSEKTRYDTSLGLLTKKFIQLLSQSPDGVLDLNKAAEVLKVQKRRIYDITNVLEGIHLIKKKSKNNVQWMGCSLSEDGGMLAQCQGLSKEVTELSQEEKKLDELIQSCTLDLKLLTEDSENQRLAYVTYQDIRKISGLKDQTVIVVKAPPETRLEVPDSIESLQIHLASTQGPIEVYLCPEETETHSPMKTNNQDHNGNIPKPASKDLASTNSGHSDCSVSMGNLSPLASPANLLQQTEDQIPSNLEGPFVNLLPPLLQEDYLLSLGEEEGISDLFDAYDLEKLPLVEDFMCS
Text: as §4, §5, §1

[6] = molecular target: T5, pRb / adenovirus E1a protein interaction (Homo sapiens, UniProt P06400); experiment: specificity control: binding of pRb to in vitro translated adenovirus E1a protein; conditions: unrelated protein-protein interaction control
T5 construct: GST; made in house; host or cells: pRb fusion purified on glutathione Sepharose; E1a made by in vitro translation
T5 sequence (P06400 1-928): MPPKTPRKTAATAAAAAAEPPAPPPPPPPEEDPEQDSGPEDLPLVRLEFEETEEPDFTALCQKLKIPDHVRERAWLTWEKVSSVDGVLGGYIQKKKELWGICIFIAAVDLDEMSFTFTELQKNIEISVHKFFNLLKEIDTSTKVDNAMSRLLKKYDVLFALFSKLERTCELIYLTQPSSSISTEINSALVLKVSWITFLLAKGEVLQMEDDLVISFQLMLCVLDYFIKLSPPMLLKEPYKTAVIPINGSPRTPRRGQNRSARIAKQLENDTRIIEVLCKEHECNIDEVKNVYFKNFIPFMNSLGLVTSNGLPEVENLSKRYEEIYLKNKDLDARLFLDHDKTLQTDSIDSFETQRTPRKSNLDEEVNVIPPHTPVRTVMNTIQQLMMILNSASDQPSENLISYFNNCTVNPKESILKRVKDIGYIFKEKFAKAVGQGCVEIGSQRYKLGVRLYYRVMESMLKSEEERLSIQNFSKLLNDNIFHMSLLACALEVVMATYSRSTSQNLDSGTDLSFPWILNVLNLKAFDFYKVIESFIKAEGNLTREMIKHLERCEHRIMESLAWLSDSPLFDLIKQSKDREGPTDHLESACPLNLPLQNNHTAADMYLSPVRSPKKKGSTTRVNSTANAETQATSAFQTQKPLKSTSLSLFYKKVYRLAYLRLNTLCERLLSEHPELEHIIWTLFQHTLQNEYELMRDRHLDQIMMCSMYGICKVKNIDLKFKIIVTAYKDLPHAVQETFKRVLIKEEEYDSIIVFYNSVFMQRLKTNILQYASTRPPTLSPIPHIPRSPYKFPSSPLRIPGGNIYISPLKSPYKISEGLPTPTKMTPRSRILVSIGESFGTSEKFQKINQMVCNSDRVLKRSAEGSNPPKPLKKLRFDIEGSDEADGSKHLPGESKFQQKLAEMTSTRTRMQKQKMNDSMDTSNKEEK
Experimental: To evaluate the specificity of this effect, we undertook two controls. Firstly, the effect of DEF box derived peptides on an unrelated but well characterised protein-protein interaction was assessed, namely the binding of pRb to the adenovirus E1a protein (34). The E1a protein, when provided in the assay as an in vitro translate, specifically bound to pRb. […] Secondly, unrelated peptides representing other regions of DP-1 or subdomains of peptide H were assessed in the binding reaction. […] Overall, the results argue that peptide H antagonises the interaction between DP-1 and E2F-1 in the formation of a heterodimer.
as §1

[7] = test system: ATF DNA binding activity; experiment: gel retardation, ATF site (specificity control); format: biochemical; conditions: similar conditions as E2F assay
Experimental: as §3, §2

Substance | effect on binding of DP-1 to E2F-1 (formation of DP-1/E2F-1 heterodimer) [1] | inhibition of DP-1/E2F-1 DNA binding activity [2] | inactivation of E2F DNA binding activity in F9 EC cell extracts [3] | also measured
H1: peptide derived from the DEF box region which failed to affect heterodimer formation (RRRVYDALNVL) [Peptide H1] | failed to affect formation of the DP-1/E2F-1 heterodimer | did not interfere with DNA binding activity | not | 
NVLMAMNIISKEKKEIKWIG [Peptide H3] |  | lower activity compared to H2 and H7 |  | 
RRRAYDALNALMAMNIISK [Peptide H2mt1, mutant H2 peptide, V169 and V175 altered] |  |  | inactivated the E2F site DNA binding activity in F9 EC cell extracts with similar efficiency | 
RARVYAALNVLMAMNIISK [Peptide H2mt2, mutant H2 peptide] |  |  | retained some activity, but less than wild-type H2 | 
17: DP-1 peptide taken from DCB1, C-terminal side of the DEF homology region (EVERQRRLERIKQKQ) [Peptide 17, reference compound] | failed to have any noticeable effect | did not interfere with DNA binding activity |  | 
RVYDALNVLMAMNIIS [Peptide H5, 16 residues within H2] | retained antagonistic activity | lower activity compared to H2 and H7 |  | 
KNIRRRVYDALNVLMAMNIISKEKKEIKWIGLPTNSA [Peptide H, complete DEF box region, residues 163 to 199 of DP-1, 37 residues] | interfere with the binding efficiency of DP-1 and E2F-1 | Clear inhibition of DNA binding activity | inactivated | effect on ability of E2F-2 to bind to DP-1 [4]: interfered specifically; effect on ability of E2F-3 to bind to DP-1 [5]: interfered specifically; effect on binding of pRb to E1a [6]: no apparent effect; sensitivity of pocket protein-E2F complex relative to free E2F heterodimer ([3]; slower migrating E2F complex): less sensitive; effect on ATF DNA binding activity [7]: no effect
15: DP-1 peptide taken from DCB1, C-terminal side of the DEF homology region (NLVQRNRQAEQQARR) [Peptide 15, reference compound] | failed to have any noticeable effect | did not interfere with DNA binding activity |  | 
Peptide 18: contains the N-terminal sequence taken from the DEF homology region (NESAYDQKNIRR) [reference compound] | failed to have any noticeable effect | did not interfere with DNA binding activity |  | 
H6: shorter DEF box peptide lacking activity (RRVYDALNVLMAMN) [Peptide H6] | lacked activity; also recorded: failed to affect formation of the DP-1/E2F-1 heterodimer | did not interfere with DNA binding activity |  | 
